{"source": "patent US20230270824A1", "about": "“INTERFERON-BASED CANCER TREATMENT METHOD AND PHARMACEUTICAL COMPOSITION” (XIAMEN AMOYTOP BIOTECH CO., LTD., priority 2019, published 2023)", "key": {"[1]": {"system": "transplanted breast cancer 4T1", "assay": "Interferon combined with gemcitabine, transplanted breast cancer 4T1 in mice (Example 9)", "format": "in vivo, BALB/c mice", "conditions": "53 days after tumor inoculation", "protocol": "(§1) In this example, a comparative study on the efficacy of PEG-mIFN-α4 intermittent administration (once every 48 hours for 3 consecutive times, then drug withdrawal for 144 hours; for 5 rounds), PEG-mIFN-α4 continuous administration (once every 48 hours for 25 consecutive times), PEG-mIFN-α4 in combination with gemcitabine (PEG-mIFN-α4: once every 48 hours for 3 consecutive times, then drug withdrawal for 240 hours, 4 rounds; gemcitabine: once a week) on transplanted breast cancer 4T1 in mice was performed.\n(§2) On the day when the tumor was inoculated, they were randomly divided into PEG-mIFN-α4 continuous administration group (N=24, female 12, male 12), PEG-mIFN-α4 intermittent administration group (N=24, female 12, male 12), the normal saline control group (N=24, female 12, male 12), the gemcitabine only group (N=24, female 12, male 12), and PEG-mIFN-α4 combined with gemcitabine group (N=24, female 12, male 12).\n(§3) For the PEG-mIFN-α4 intermittent administration group, PEG-mIFN-α4 was administered once every 48 hours for 3 consecutive times, then drug withdrawal for 144 hours; for 5 rounds. For the PEG-mIFN-α4 continuous administration group, PEG-mIFN-α4 was administered once every 48 hours. For the PEG-mIFN-α4 combined with gemcitabine group, PEG-mIFN-α4 was administered once every 48 hours for 3 consecutive times, then drug withdrawal for 240 hours; for 4 rounds; and gemcitabine was administered once a week. For the gemcitabine only group, gemcitabine was administered once a week. For the saline control group, equal volume of saline was administered. Gemcitabine was injected intraperitoneally, 60 mg/kg.\n(§4) SAS9.4 software was used for comparing the difference in mortality, and the statistical tests were all two-sided tests."}, "[2]": {"system": "transplanted liver cancer H22", "assay": "Interferon combined with gemcitabine, transplanted liver cancer H22 in mice (Example 5)", "format": "in vivo, BALB/c mice", "conditions": "108 days observation", "protocol": "In this example, a comparative study on the efficacy of PEG-mIFN-α4 intermittent administration (once every 48 hours for three consecutive times, then drug withdrawal for 144 hours; for 8 rounds), PEG-mIFN-α4 continuous administration (once every 48 hours for 42 consecutive times), PEG-mIFN-α4 in combination with gemcitabine (PEG-mIFN-α4: once every 48 hours for three consecutive times, then drug withdrawal for 240 hours, 6 rounds; gemcitabine: once a week) on H22 transplanted liver cancer in mice was performed.\nas §2\nGemcitabine was injected intraperitoneally, 60 mg/kg.\nas §3, with “for three” for “for 3”, “for 8” for “for 5”, “for 6” for “for 4”, “administered.” for “administered. Gemcitabine was injected intraperitoneally, 60 mg/kg.”\nSurvival analysis was performed for all groups to compare the differences between groups."}, "[3]": {"system": "transplanted liver cancer H22", "assay": "Continuous vs intermittent administration, transplanted liver cancer H22 in mice (Example 4)", "format": "in vivo, BALB/c mice", "conditions": "continuous administration: 1 μg s.c. once every 48 hours, 21 times, Day 40 after tumor inoculation"}, "[4]": {"assay": "Pharmacokinetic study of single subcutaneous injection in healthy BALB/c mice (double-antibody sandwich ELISA)", "protocol": "6-8 weeks old, SPF grade BALB/c mice (N=60, with fifty-fifty of male and female mice) were injected with a single injection of 1 μg/mouse PEG-mIFN-α4 subcutaneously on the back of the neck. Plasma samples were collected before the injection (0 h) and after the injection at 15 h, 24 h, 36 h, 48 h, 72 h, 96 h, 120 h, 168 h, 216 h, 264 h, 312 h, to determine the blood concentration. Phoenix WinNonlin 6.4 software was used to calculate the pharmacokinetic parameters."}, "[5]": {"system": "transplanted melanoma B16", "assay": "Interferon combined with gemcitabine, transplanted melanoma B16 in mice (Example 8)", "format": "in vivo, C57BL/6N mice", "protocol": "as §1, with “240” for “144”, “4” for “5”, “24” for “25”, “melanoma B16” for “breast cancer 4T1”\nas §2, with “(N=28,” for “(N=24,”, “14,” for “12,”, “14),” for “12),”, “14).” for “12).”\nas §3, with “240” for “144”, “4” for “5”\nas §4"}, "[6]": {"system": "mouse fibroblast/encephalomyocarditis virus (L929/EMCV)", "assay": "Specific activity by mouse fibroblast/encephalomyocarditis virus (L929/EMCV) cytopathic inhibition method", "format": "cell-based", "conditions": "stock solution; commercial mIFN-α4 (R&D) as the standard", "protocol": "(§5) The bacterial endotoxin content of the deglycosylated mIFN-α4 stock solution was determined by the Limulus reagent method as lower than 60 EU/mg. specific activity was determined as 5.4×10^8 U/mg by using the commercial mIFN-α4 (R&D, catalog number 12115-1) as the standard, and by using the mouse fibroblast/encephalomyocarditis virus (L929/EMCV) cytopathic inhibition method.\nas §5, with “PEG-mIFN-α4” for “deglycosylated mIFN-α4”, “15” for “60”, “Specific” for “specific”, “6.1×10^6” for “5.4×10^8”"}}, "note": "“And” between values parts separate entries of the source, which are not always exact repeats. Equal entries are not always repeated."}
{"molecule": "PEG-mIFN-α4: deglycosylated recombinant mouse interferon α4 modified with 40 kD Y-type polyethylene glycol (YPEG-NHS); SEQ ID NO: 6 (protein, 40 kD Y-type PEG; deglycosylated; amino acid sequence of peginterferon murine 4) CDLPHTYNLGNKRALTVLEEMRRLPPLSCLKDRKDFGFPLEKVDNQQIQKAQAILVLRDLTQQILNLFTSKDLSATWNATLLDSFCNDLHQQLNDLKACVMQEPPLTQEDSLLAVRTYFHRITVYLRKKKHSLCAWEVIRAEVWRALSSSTNLLARLSEEKE", "values": [{"measurement": "Mortality", "setting": "[1]; continuous administration (once every 48 hours, 25 times)", "value": "87.5% and 58.3%"}, {"measurement": "Mortality", "setting": "[1]; intermittent administration (every 48 h x3, withdrawal 144 h, 5 rounds)", "value": 87.5, "unit": "%"}, {"measurement": "Mean survival period (days post tumor inoculation)", "setting": "[2]; continuous administration: 1 μg/mouse s.c. once every 48 hours, 42 times", "value": 37.0, "unit": "days"}, {"measurement": "Mean survival period (days post tumor inoculation)", "setting": "[2]; intermittent administration: 1 μg/mouse s.c. every 48 h x3, withdrawal 144 h, 8 rounds", "value": 64.0, "unit": "days"}, {"measurement": "Median survival period (Time after tumor inoculation, days)", "setting": "[3]", "value": "38 days and 38.0 days"}, {"measurement": "Individual blood concentration", "setting": "[4]; collected at 96 h, individual mice 1-5, single s.c. 1 μg/mouse", "value": 87.5, "unit": "ng/mL"}, {"measurement": "Cl_F—obs", "setting": "[4]; mouse, in vivo, sc", "value": 0.07, "unit": "mL/h"}, {"measurement": "T1/2", "setting": "[4]; mouse, in vivo, sc", "value": 28.3, "unit": "h"}, {"measurement": "Tmax", "setting": "[4]; mouse, in vivo, sc", "value": 24, "unit": "h"}, {"measurement": "Vz_F—obs", "setting": "[4]; mouse, in vivo, sc", "value": 2.91, "unit": "mL"}, {"measurement": "Mortality", "setting": "[5]; continuous administration (once every 48 hours), 46 days after tumor inoculation", "value": 100, "unit": "%"}, {"measurement": "Mortality", "setting": "[5]; continuous administration (once every 48 hours, 24 times), Table 7, day not printed for this cell (footnotes: Day 46 / Day 48)", "value": 100, "unit": "%"}, {"measurement": "Mortality", "setting": "[5]; intermittent administration (every 48 h x3, withdrawal 240 h, 4 rounds), 46 days after tumor inoculation", "value": 39.3, "unit": "%"}, {"measurement": "Mortality", "setting": "[5]; intermittent administration (every 48 h x3, withdrawal 240 h, 4 rounds), 48 days after tumor inoculation", "value": 46.4, "unit": "%"}, {"measurement": "Specific activity", "setting": "[6]", "value": "6.1×10^6 U/mg"}]}
